# Measurements reported in PMC9772344.
# Key:
# Conditions in all cases: chain shown with the change; transfected HeLa cells; n = 3 per group; parent: est. 1.0; read off a plot
# Orai1, Q96D31 = experiment: Co-IP (GLT-1 capture antibody, immunoblot for Orai1, band quantification)
# [1] = target: stromal-interacting molecule 1 (STIM1), Q13586; experiment: Co-IP (GLT-1 capture antibody, immunoblot for STIM1, band quantification)
# [2] = target: stromal-interacting molecule 1 (STIM1), Q13586; experiment: Co-IP (STIM1 capture antibody, immunoblot for GLT-1, band quantification)
# Sequence of Orai1, Q96D31 (Q96D31 whole entry): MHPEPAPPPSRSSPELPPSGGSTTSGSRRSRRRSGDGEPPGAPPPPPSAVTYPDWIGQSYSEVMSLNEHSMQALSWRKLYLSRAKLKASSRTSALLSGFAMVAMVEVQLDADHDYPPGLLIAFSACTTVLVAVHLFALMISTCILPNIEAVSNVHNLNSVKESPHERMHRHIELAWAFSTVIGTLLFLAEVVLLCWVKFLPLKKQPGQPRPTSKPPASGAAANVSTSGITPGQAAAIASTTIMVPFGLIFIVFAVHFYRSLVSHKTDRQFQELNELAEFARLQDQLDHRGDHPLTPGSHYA
# Sequence of stromal-interacting molecule 1 (STIM1), Q13586 (Q13586 23-685): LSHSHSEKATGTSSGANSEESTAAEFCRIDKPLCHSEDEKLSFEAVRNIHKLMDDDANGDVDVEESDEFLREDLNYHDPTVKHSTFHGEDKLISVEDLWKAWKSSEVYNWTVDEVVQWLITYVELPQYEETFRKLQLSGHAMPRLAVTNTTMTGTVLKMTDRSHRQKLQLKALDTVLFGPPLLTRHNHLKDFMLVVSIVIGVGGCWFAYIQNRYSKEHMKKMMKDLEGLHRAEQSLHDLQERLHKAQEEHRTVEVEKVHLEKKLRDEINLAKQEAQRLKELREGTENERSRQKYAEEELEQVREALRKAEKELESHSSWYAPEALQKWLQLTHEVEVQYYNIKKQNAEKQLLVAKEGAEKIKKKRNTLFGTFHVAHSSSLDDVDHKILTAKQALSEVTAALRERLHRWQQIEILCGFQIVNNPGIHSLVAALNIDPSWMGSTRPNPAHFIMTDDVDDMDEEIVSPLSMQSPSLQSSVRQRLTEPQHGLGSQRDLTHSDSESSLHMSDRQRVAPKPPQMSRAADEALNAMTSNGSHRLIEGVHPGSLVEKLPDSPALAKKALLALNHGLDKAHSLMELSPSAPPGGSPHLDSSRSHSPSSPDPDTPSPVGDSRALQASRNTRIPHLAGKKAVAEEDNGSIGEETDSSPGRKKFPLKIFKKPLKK
Binder,"response (relative band intensity) (Orai1, Q96D31)",response (relative band intensity) [1],response (relative band intensity) [2]
"glutamate transporter GLT-1 (excitatory amino acid transporter 2, EAAT2), WT plasmid, P43006 G82R; L85P (protein) MASTEGANNMPKQVEVRMHDSHLSSDEPKHRNLGMRMCDKLGKNLLLSLTVFGVILGAVCGGLLRLASPIHPDVVMLIAFPRDIPMRMLKMLILPLIISSLITGLSGLDAKASGRLGTRAMVYYMSTTIIAAVLGVILVLAIHPGNPKLKKQLGPGKKNDEVSSLDAFLDLIRNLFPENLVQACFQQIQTVTKKVLVAPPSEEANTTKAVISMLNETMNEAPEETKIVIKKGLEFKDGMNVLGLIGFFIAFGIAMGKMGEQAKLMVEFFNILNEIVMKLVIMIMWYSPLGIACLICGKIIAIKDLEVVARQLGMYMITVIVGLIIHGGIFLPLIYFVVTRKNPFSFFAGIFQAWITALGTASSAGTLPVTFRCLEDNLGIDKRVTRFVLPVGATINMDGTALYEAVAAIFIAQMNGVILDGGQIVTVSLTATLASIGAASIPSAGLVTMLLILTAVGLPTEDISLLVAVDWLLDRMRTSVNVVGDSFGAGIVYHLSKSELDTIDSQHRMQEDIEMTKTQSIYDDKNHRESNSNQCVYAAHNSVVIDECKVTLAANGKSADCSVEEEPWKREK",0.27,0.08,0.12
"glutamate transporter GLT-1 (excitatory amino acid transporter 2, EAAT2), WT plasmid, P43006 G82R (protein) MASTEGANNMPKQVEVRMHDSHLSSDEPKHRNLGMRMCDKLGKNLLLSLTVFGVILGAVCGGLLRLASPIHPDVVMLIAFPRDILMRMLKMLILPLIISSLITGLSGLDAKASGRLGTRAMVYYMSTTIIAAVLGVILVLAIHPGNPKLKKQLGPGKKNDEVSSLDAFLDLIRNLFPENLVQACFQQIQTVTKKVLVAPPSEEANTTKAVISMLNETMNEAPEETKIVIKKGLEFKDGMNVLGLIGFFIAFGIAMGKMGEQAKLMVEFFNILNEIVMKLVIMIMWYSPLGIACLICGKIIAIKDLEVVARQLGMYMITVIVGLIIHGGIFLPLIYFVVTRKNPFSFFAGIFQAWITALGTASSAGTLPVTFRCLEDNLGIDKRVTRFVLPVGATINMDGTALYEAVAAIFIAQMNGVILDGGQIVTVSLTATLASIGAASIPSAGLVTMLLILTAVGLPTEDISLLVAVDWLLDRMRTSVNVVGDSFGAGIVYHLSKSELDTIDSQHRMQEDIEMTKTQSIYDDKNHRESNSNQCVYAAHNSVVIDECKVTLAANGKSADCSVEEEPWKREK",0.22,0.15,0.15
"glutamate transporter GLT-1 (excitatory amino acid transporter 2, EAAT2), WT plasmid, P43006 L85P (protein) MASTEGANNMPKQVEVRMHDSHLSSDEPKHRNLGMRMCDKLGKNLLLSLTVFGVILGAVCGGLLRLASPIHPDVVMLIAFPGDIPMRMLKMLILPLIISSLITGLSGLDAKASGRLGTRAMVYYMSTTIIAAVLGVILVLAIHPGNPKLKKQLGPGKKNDEVSSLDAFLDLIRNLFPENLVQACFQQIQTVTKKVLVAPPSEEANTTKAVISMLNETMNEAPEETKIVIKKGLEFKDGMNVLGLIGFFIAFGIAMGKMGEQAKLMVEFFNILNEIVMKLVIMIMWYSPLGIACLICGKIIAIKDLEVVARQLGMYMITVIVGLIIHGGIFLPLIYFVVTRKNPFSFFAGIFQAWITALGTASSAGTLPVTFRCLEDNLGIDKRVTRFVLPVGATINMDGTALYEAVAAIFIAQMNGVILDGGQIVTVSLTATLASIGAASIPSAGLVTMLLILTAVGLPTEDISLLVAVDWLLDRMRTSVNVVGDSFGAGIVYHLSKSELDTIDSQHRMQEDIEMTKTQSIYDDKNHRESNSNQCVYAAHNSVVIDECKVTLAANGKSADCSVEEEPWKREK",0.17,0.12,0.13
